Experimental data reported in paper PMC4852880.

Biological target: HMGB1b (rat, UniProt P63159 95-163)
Experiment: EMSA

Chain of HMGB1b (P63159 95-163): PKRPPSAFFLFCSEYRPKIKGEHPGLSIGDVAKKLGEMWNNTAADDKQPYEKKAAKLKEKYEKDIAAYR

B1: J1 (structured_DNA)
DNA 1: CGCAATCCTGAGCACG
DNA 2: CGTGCTCACCGAATCG
DNA 3: GCATTCGGACTATGGC
DNA 4: GCCATAGTGGATTGCG
binding result: binds
